Laboratory results reported in US20210388087A1.

Molecular target: Human CD3eg linker (human)
Assay: SPR; fold vs parent H183/L072

Chain of Human CD3eg linker (human) (chain, as listed by the source limits assumed): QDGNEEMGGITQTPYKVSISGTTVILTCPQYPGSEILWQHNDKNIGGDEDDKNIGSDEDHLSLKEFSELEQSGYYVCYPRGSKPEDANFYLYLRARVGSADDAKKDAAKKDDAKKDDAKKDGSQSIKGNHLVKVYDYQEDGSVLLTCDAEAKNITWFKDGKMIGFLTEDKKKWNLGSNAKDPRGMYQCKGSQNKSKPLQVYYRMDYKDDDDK

fold change of affinity [fold] | Binder
0 | H183/L072 VL P95L (antibody, name in Kabat numbering, V domains shown) VH: QVQLVESGGGLVQPGRSLRLSCAASGFTFSNAWMHWVRQAPGKGLEWVAQIKDKGNAYAAYYAPSVKGRFTISRDDSKNSIYLQMNSLKTEDTAVYYCHYVHYASASTVLPAFGVDAWGQGTTVTVSS VL: DIVMTQSPLSLPVTPGEPASISCQASQELVHMNRNTYLHWYQQKPGQAPRLLIYKVSNRFPGVPDRFSGSGSGTDFTLKISRVEAEDVGVYYCAQGTSVLFTFGQGTKLEIK
0 | H183/L072 VL T92I (antibody, name in Kabat numbering, V domains shown) VH: QVQLVESGGGLVQPGRSLRLSCAASGFTFSNAWMHWVRQAPGKGLEWVAQIKDKGNAYAAYYAPSVKGRFTISRDDSKNSIYLQMNSLKTEDTAVYYCHYVHYASASTVLPAFGVDAWGQGTTVTVSS VL: DIVMTQSPLSLPVTPGEPASISCQASQELVHMNRNTYLHWYQQKPGQAPRLLIYKVSNRFPGVPDRFSGSGSGTDFTLKISRVEAEDVGVYYCAQGISVPFTFGQGTKLEIK
0 | H183/L072 VL N53I (antibody, name in Kabat numbering, V domains shown) VH: QVQLVESGGGLVQPGRSLRLSCAASGFTFSNAWMHWVRQAPGKGLEWVAQIKDKGNAYAAYYAPSVKGRFTISRDDSKNSIYLQMNSLKTEDTAVYYCHYVHYASASTVLPAFGVDAWGQGTTVTVSS VL: DIVMTQSPLSLPVTPGEPASISCQASQELVHMNRNTYLHWYQQKPGQAPRLLIYKVSIRFPGVPDRFSGSGSGTDFTLKISRVEAEDVGVYYCAQGTSVPFTFGQGTKLEIK
0 | H183/L072 VL K50M (antibody, name in Kabat numbering, V domains shown) VH: QVQLVESGGGLVQPGRSLRLSCAASGFTFSNAWMHWVRQAPGKGLEWVAQIKDKGNAYAAYYAPSVKGRFTISRDDSKNSIYLQMNSLKTEDTAVYYCHYVHYASASTVLPAFGVDAWGQGTTVTVSS VL: DIVMTQSPLSLPVTPGEPASISCQASQELVHMNRNTYLHWYQQKPGQAPRLLIYMVSNRFPGVPDRFSGSGSGTDFTLKISRVEAEDVGVYYCAQGTSVPFTFGQGTKLEIK
0 | H183/L072 VL Q90L (antibody, name in Kabat numbering, V domains shown) VH: QVQLVESGGGLVQPGRSLRLSCAASGFTFSNAWMHWVRQAPGKGLEWVAQIKDKGNAYAAYYAPSVKGRFTISRDDSKNSIYLQMNSLKTEDTAVYYCHYVHYASASTVLPAFGVDAWGQGTTVTVSS VL: DIVMTQSPLSLPVTPGEPASISCQASQELVHMNRNTYLHWYQQKPGQAPRLLIYKVSNRFPGVPDRFSGSGSGTDFTLKISRVEAEDVGVYYCALGTSVPFTFGQGTKLEIK
0 | H183/L072 VL Q90I (antibody, name in Kabat numbering, V domains shown) VH: QVQLVESGGGLVQPGRSLRLSCAASGFTFSNAWMHWVRQAPGKGLEWVAQIKDKGNAYAAYYAPSVKGRFTISRDDSKNSIYLQMNSLKTEDTAVYYCHYVHYASASTVLPAFGVDAWGQGTTVTVSS VL: DIVMTQSPLSLPVTPGEPASISCQASQELVHMNRNTYLHWYQQKPGQAPRLLIYKVSNRFPGVPDRFSGSGSGTDFTLKISRVEAEDVGVYYCAIGTSVPFTFGQGTKLEIK
0 | H183/L072 VL P95I (antibody, name in Kabat numbering, V domains shown) VH: QVQLVESGGGLVQPGRSLRLSCAASGFTFSNAWMHWVRQAPGKGLEWVAQIKDKGNAYAAYYAPSVKGRFTISRDDSKNSIYLQMNSLKTEDTAVYYCHYVHYASASTVLPAFGVDAWGQGTTVTVSS VL: DIVMTQSPLSLPVTPGEPASISCQASQELVHMNRNTYLHWYQQKPGQAPRLLIYKVSNRFPGVPDRFSGSGSGTDFTLKISRVEAEDVGVYYCAQGTSVIFTFGQGTKLEIK

The remaining lines, values behind:

Binder | fold change of affinity [fold]
H183/L072 VL K50I (antibody, name in Kabat numbering, V domains shown) VH: QVQLVESGGGLVQPGRSLRLSCAASGFTFSNAWMHWVRQAPGKGLEWVAQIKDKGNAYAAYYAPSVKGRFTISRDDSKNSIYLQMNSLKTEDTAVYYCHYVHYASASTVLPAFGVDAWGQGTTVTVSS VL: DIVMTQSPLSLPVTPGEPASISCQASQELVHMNRNTYLHWYQQKPGQAPRLLIYIVSNRFPGVPDRFSGSGSGTDFTLKISRVEAEDVGVYYCAQGTSVPFTFGQGTKLEIK | 0
H183/L072 VL G91I (antibody, name in Kabat numbering, V domains shown) VH: QVQLVESGGGLVQPGRSLRLSCAASGFTFSNAWMHWVRQAPGKGLEWVAQIKDKGNAYAAYYAPSVKGRFTISRDDSKNSIYLQMNSLKTEDTAVYYCHYVHYASASTVLPAFGVDAWGQGTTVTVSS VL: DIVMTQSPLSLPVTPGEPASISCQASQELVHMNRNTYLHWYQQKPGQAPRLLIYKVSNRFPGVPDRFSGSGSGTDFTLKISRVEAEDVGVYYCAQITSVPFTFGQGTKLEIK | 0
H183/L072 VL F96I (antibody, name in Kabat numbering, V domains shown) VH: QVQLVESGGGLVQPGRSLRLSCAASGFTFSNAWMHWVRQAPGKGLEWVAQIKDKGNAYAAYYAPSVKGRFTISRDDSKNSIYLQMNSLKTEDTAVYYCHYVHYASASTVLPAFGVDAWGQGTTVTVSS VL: DIVMTQSPLSLPVTPGEPASISCQASQELVHMNRNTYLHWYQQKPGQAPRLLIYKVSNRFPGVPDRFSGSGSGTDFTLKISRVEAEDVGVYYCAQGTSVPITFGQGTKLEIK | 0
H183/L072 VL K50L (antibody, name in Kabat numbering, V domains shown) VH: QVQLVESGGGLVQPGRSLRLSCAASGFTFSNAWMHWVRQAPGKGLEWVAQIKDKGNAYAAYYAPSVKGRFTISRDDSKNSIYLQMNSLKTEDTAVYYCHYVHYASASTVLPAFGVDAWGQGTTVTVSS VL: DIVMTQSPLSLPVTPGEPASISCQASQELVHMNRNTYLHWYQQKPGQAPRLLIYLVSNRFPGVPDRFSGSGSGTDFTLKISRVEAEDVGVYYCAQGTSVPFTFGQGTKLEIK | 0
H183/L072 VL A89L (antibody, name in Kabat numbering, V domains shown) VH: QVQLVESGGGLVQPGRSLRLSCAASGFTFSNAWMHWVRQAPGKGLEWVAQIKDKGNAYAAYYAPSVKGRFTISRDDSKNSIYLQMNSLKTEDTAVYYCHYVHYASASTVLPAFGVDAWGQGTTVTVSS VL: DIVMTQSPLSLPVTPGEPASISCQASQELVHMNRNTYLHWYQQKPGQAPRLLIYKVSNRFPGVPDRFSGSGSGTDFTLKISRVEAEDVGVYYCLQGTSVPFTFGQGTKLEIK | 0
H183/L072 VL F96L (antibody, name in Kabat numbering, V domains shown) VH: QVQLVESGGGLVQPGRSLRLSCAASGFTFSNAWMHWVRQAPGKGLEWVAQIKDKGNAYAAYYAPSVKGRFTISRDDSKNSIYLQMNSLKTEDTAVYYCHYVHYASASTVLPAFGVDAWGQGTTVTVSS VL: DIVMTQSPLSLPVTPGEPASISCQASQELVHMNRNTYLHWYQQKPGQAPRLLIYKVSNRFPGVPDRFSGSGSGTDFTLKISRVEAEDVGVYYCAQGTSVPLTFGQGTKLEIK | 0
H183/L072 VL G91L (antibody, name in Kabat numbering, V domains shown) VH: QVQLVESGGGLVQPGRSLRLSCAASGFTFSNAWMHWVRQAPGKGLEWVAQIKDKGNAYAAYYAPSVKGRFTISRDDSKNSIYLQMNSLKTEDTAVYYCHYVHYASASTVLPAFGVDAWGQGTTVTVSS VL: DIVMTQSPLSLPVTPGEPASISCQASQELVHMNRNTYLHWYQQKPGQAPRLLIYKVSNRFPGVPDRFSGSGSGTDFTLKISRVEAEDVGVYYCAQLTSVPFTFGQGTKLEIK | 0
H183/L072 VL A89I (antibody, name in Kabat numbering, V domains shown) VH: QVQLVESGGGLVQPGRSLRLSCAASGFTFSNAWMHWVRQAPGKGLEWVAQIKDKGNAYAAYYAPSVKGRFTISRDDSKNSIYLQMNSLKTEDTAVYYCHYVHYASASTVLPAFGVDAWGQGTTVTVSS VL: DIVMTQSPLSLPVTPGEPASISCQASQELVHMNRNTYLHWYQQKPGQAPRLLIYKVSNRFPGVPDRFSGSGSGTDFTLKISRVEAEDVGVYYCIQGTSVPFTFGQGTKLEIK | 0
